Measured values: PMC8762078, “An ALS-associated variant of the autophagy receptor SQSTM1/p62 reprograms binding selectivity toward the autophagy-related hATG8 proteins” (The Journal of Biological Chemistry, 2021)

Target: p62 WT-AIM peptide (human)
Assay: native MS; ESI-MS competition binding under nondenaturing conditions: each hATG8 titrated into an equimolar mixture of WT-AIM and L341V-AIM peptides (each 10 μM); read-out is the ratio of peak intensities of unbound WT and L341V peptides; ratios given for 20 μM hATG8; two independent experiments

Chain of GABARAPL1 (Q9H0R8 whole entry): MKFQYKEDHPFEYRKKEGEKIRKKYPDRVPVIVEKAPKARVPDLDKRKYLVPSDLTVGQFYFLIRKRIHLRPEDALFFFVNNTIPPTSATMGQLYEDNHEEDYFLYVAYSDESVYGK

- ratio of unbound WT:L341V AIM peptides at 20 μM hATG8 (reference: L341V-AIM): 0.5
Substance: GABARAPL1 (from UniProt Q9H0R8 1-117) (natural protein)
